Common to all, as to assay: SPR
Details in all cases: remark: other sources report otherwise

The target of test [1] is human IgG1-Fc homodimer glycoform Fc-1 (bisecting-GlcNAc-Man3GlcNAc2) (human).
Test [2] concerns the target human IgG1-Fc homodimer glycoform Fc-5 (Man3GlcNAc2) (human).
The target in test [3] is wild type recombinant human IgG1-Fc homodimer carrying fucosylated complex type N-glycans (CT-Fc) (human).

B1: FcγRIIb, P31994 43-310 (receptor)
chain: TPAAPPKAVLKLEPQWINVLQEDSVTLTCRGTHSPESDSIQWFHNGNLIPTHTQPSYRFKANNNDSGEYTCQTGQTSLSDPVHLTVLSEWLVLQTPHLEFQEGETIVLRCHSWKDKPLVKVTFFQNGKSKKFSRSDPNFSIPQANHSHSGDYHCTGNIGYTLYSSKPVTITVQAP
modifications: not checked
For orientation: Kd means the equilibrium constant for the complex coming apart. With B1, the results for the Kd in test [1], in test [2] and in test [3] were 2200 nM, 2900 nM and 2100 nM, respectively.
